Data as given in patent publication US20090208416A1.

Assays:
[1] = target: NKG2A on rhesus monkey (Macaca mulatta) NK cells (rhesus monkey (Macaca mulatta)) (UniProt Q9MZJ3); assay: FACS rhesus whole blood, animal 31828
[2] = target: NKG2A on rhesus monkey (Macaca mulatta) NK cells (rhesus monkey (Macaca mulatta)) (UniProt Q9MZJ3); assay: FACS rhesus whole blood, animal R00007
[3] = target: NKG2A on rhesus monkey (Macaca mulatta) NK cells (rhesus monkey (Macaca mulatta)) (UniProt Q9MZJ3); assay: FACS rhesus whole blood, animal R00013
[4] = target: NKG2A on rhesus monkey (Macaca mulatta) NK cells (rhesus monkey (Macaca mulatta)) (UniProt Q9MZJ3); assay: FACS rhesus whole blood, animal R00037
[5] = target: NKG2A on rhesus monkey (Macaca mulatta) NK cells (rhesus monkey (Macaca mulatta)) (UniProt Q9MZJ3); assay: FACS rhesus whole blood, animal R00041
[6] = target: NKG2A on rhesus monkey (Macaca mulatta) NK cells (rhesus monkey (Macaca mulatta)) (UniProt Q9MZJ3); assay: FACS rhesus whole blood, animal R00055
[7] = target: NKG2A on rhesus monkey (Macaca mulatta) NK cells (rhesus monkey (Macaca mulatta)) (UniProt Q9MZJ3); assay: FACS rhesus whole blood, animal R00061
[8] = target: NKG2A on rhesus monkey (Macaca mulatta) NK cells (rhesus monkey (Macaca mulatta)) (UniProt Q9MZJ3); assay: FACS rhesus whole blood, animal R00077
[9] = target: NKG2A on rhesus monkey (Macaca mulatta) NK cells (rhesus monkey (Macaca mulatta)) (UniProt Q9MZJ3); assay: FACS rhesus whole blood, animal R00085
[10] = target: NKG2A on rhesus monkey (Macaca mulatta) NK cells (rhesus monkey (Macaca mulatta)) (UniProt Q9MZJ3); assay: FACS rhesus whole blood, animal R00093
[11] = target: NKG2A on cynomolgus monkey NK cells (cynomolgus monkey) (UniProt Q68VD2); assay: FACS cynomolgus whole blood, animal 1221
[12] = target: NKG2A on cynomolgus monkey NK cells (cynomolgus monkey) (UniProt Q68VD2); assay: FACS cynomolgus whole blood, animal R390
[13] = target: NKG2A on cynomolgus monkey NK cells (cynomolgus monkey) (UniProt Q68VD2); assay: FACS cynomolgus whole blood, animal T788
[14] = target: NKG2A on cynomolgus monkey NK cells (cynomolgus monkey) (UniProt Q68VD2); assay: FACS cynomolgus whole blood, animal AL210
[15] = target: NKG2A on rhesus monkey (Macaca mulatta) NK cells (rhesus monkey (Macaca mulatta)) (UniProt Q9MZJ3); assay: FACS rhesus whole blood, mean over animals
[16] = target: NKG2A on baboon NK cells (baboon); assay: FACS baboon whole blood NK cells, animal O22V
[17] = target: NKG2A on baboon NK cells (baboon); assay: FACS baboon whole blood NK cells, animal V989
[18] = target: NKG2A on baboon NK cells (baboon); assay: FACS baboon whole blood NK cells, animal V992
[19] = target: NKG2A on baboon NK cells (baboon); assay: FACS baboon whole blood NK cells, animal V997
[20] = target: NKG2A on baboon NK cells (baboon); assay: FACS baboon whole blood NK cells, animal V999
[21] = target: NKG2A on rhesus monkey (Macaca mulatta) NK cells (rhesus monkey (Macaca mulatta)) (UniProt Q9MZJ3); assay: FACS rhesus whole blood NK cells, animal N0404
[22] = target: NKG2A on rhesus monkey (Macaca mulatta) NK cells (rhesus monkey (Macaca mulatta)) (UniProt Q9MZJ3); assay: FACS rhesus whole blood NK cells, animal PM021
[23] = target: NKG2A on baboon NK cells (baboon); assay: FACS baboon whole blood NK cells, animal PA977
[24] = target: NKG2A on baboon NK cells (baboon); assay: FACS baboon whole blood NK cells, animal PA983
[25] = target: NKG2A on baboon NK cells (baboon); assay: FACS baboon whole blood NK cells, animal V861B
[26] = target: NKG2A on baboon NK cells (baboon); assay: FACS baboon whole blood NK cells, animal V918C
[27] = target: NKG2A on baboon NK cells (baboon); assay: FACS baboon whole blood NK cells, animal V942A
[28] = target: NKG2A on baboon NK cells (baboon); assay: FACS baboon whole blood NK cells, animal V9812
[29] = target: NKG2A on baboon NK cells (baboon); assay: FACS baboon whole blood NK cells, animal V9914
[30] = target: NKG2A on baboon NK cells (baboon); assay: FACS baboon whole blood NK cells, animal V9926
[31] = target: NKG2A on baboon NK cells (baboon); assay: FACS baboon whole blood NK cells, animal V9929
[32] = target: NKG2A on rhesus monkey (Macaca mulatta) NK cells (rhesus monkey (Macaca mulatta)) (UniProt Q9MZJ3); assay: FACS rhesus whole blood, animal R00073 (5.6 kg)
[33] = target: NKG2A on rhesus monkey (Macaca mulatta) NK cells (rhesus monkey (Macaca mulatta)) (UniProt Q9MZJ3); assay: FACS rhesus whole blood, animal R00073 (6.1 kg)
[34] = target: NKG2A on cynomolgus monkey NK cells (cynomolgus monkey) (UniProt Q68VD2); assay: FACS cynomolgus whole blood, mean of 10 animals

UniProt Q68VD2, sequence (Q68VD2 entry or part of it): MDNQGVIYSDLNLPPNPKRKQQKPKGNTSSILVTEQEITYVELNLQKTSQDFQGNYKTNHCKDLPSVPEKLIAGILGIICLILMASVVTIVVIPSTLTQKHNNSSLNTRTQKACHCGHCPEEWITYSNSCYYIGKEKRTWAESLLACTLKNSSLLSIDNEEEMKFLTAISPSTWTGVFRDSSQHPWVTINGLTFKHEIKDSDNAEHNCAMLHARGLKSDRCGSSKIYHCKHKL
UniProt Q9MZJ3, sequence (Q9MZJ3 whole entry): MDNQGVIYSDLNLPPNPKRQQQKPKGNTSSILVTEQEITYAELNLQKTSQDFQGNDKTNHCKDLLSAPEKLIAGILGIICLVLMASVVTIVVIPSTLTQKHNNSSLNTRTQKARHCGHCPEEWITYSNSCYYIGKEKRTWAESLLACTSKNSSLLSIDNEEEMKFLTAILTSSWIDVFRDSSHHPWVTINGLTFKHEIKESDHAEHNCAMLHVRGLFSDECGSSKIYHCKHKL

**Q.** For mouse IgG1 isotype control (antibody), which % NK+ [1] is on record?
**A.** 0.4%

**Q.** What about the MFI [1] of the same substance?
**A.** 0.65

**Q.** And the % NK+ [2]?
**A.** 1.5%

**Q.** And the MFI [2]?
**A.** 0.52

**Q.** What about the % NK+ [3] of the same substance?
**A.** 0.3%

**Q.** And the MFI [3]?
**A.** 0.66

**Q.** And the % NK+ [4]?
**A.** 0.6%

**Q.** What about the MFI [4] of the same substance?
**A.** 0.5

**Q.** What about the % NK+ [5] of the same substance?
**A.** 0.9%

**Q.** What about the MFI [5] of the same substance?
**A.** 0.48

**Q.** And the % NK+ [6]?
**A.** 0.6%

**Q.** What about the MFI [6] of the same substance?
**A.** 0.7

**Q.** And the % NK+ [7]?
**A.** 0.5%

**Q.** And the MFI [7]?
**A.** 0.5

**Q.** And the % NK+ [8]?
**A.** 0.4%

**Q.** And the MFI [8]?
**A.** 0.41

**Q.** And the % NK+ [9]?
**A.** 0.9%

**Q.** And the MFI [9]?
**A.** 0.7

**Q.** And the % NK+ [10]?
**A.** 1%

**Q.** And the MFI [10]?
**A.** 0.68

**Q.** And the % NK+ [11]?
**A.** 0.6%

**Q.** What about the MFI [11] of the same substance?
**A.** 0.53

**Q.** What about the % NK+ [12] of the same substance?
**A.** 0.2%

**Q.** And the MFI [12]?
**A.** 0.39

**Q.** And the % NK+ [13]?
**A.** 0.3%

**Q.** And the MFI [13]?
**A.** 0.5

**Q.** What about the % NK+ [14] of the same substance?
**A.** 0.4%

**Q.** And the MFI [14]?
**A.** 0.65

**Q.** And the % NK+ (Mean) [15]?
**A.** 0.7%

**Q.** And the MFI (Mean) [15]?
**A.** 0.6

**Q.** And the % [16]?
**A.** 0.5%

**Q.** And the tot. MFI [16]?
**A.** 0.2

**Q.** And the % [17]?
**A.** 1.2%

**Q.** What about the tot. MFI [17] of the same substance?
**A.** 1.2

**Q.** What about the % [18] of the same substance?
**A.** 0.6%

**Q.** And the tot. MFI [18]?
**A.** 0.3

**Q.** And the % [19]?
**A.** 0.7%

**Q.** What about the tot. MFI [19] of the same substance?
**A.** 0.2

**Q.** And the % [20]?
**A.** 0.3%

**Q.** What about the tot. MFI [20] of the same substance?
**A.** 0.2

**Q.** What about the % [21] of the same substance?
**A.** 0.6%

**Q.** And the % [22]?
**A.** 0.8%

**Q.** And the % [23]?
**A.** 0.9%

**Q.** And the tot. MFI [23]?
**A.** 1.1

**Q.** And the % [24]?
**A.** 0.1%

**Q.** And the tot. MFI [24]?
**A.** 0.7

**Q.** What about the % [25] of the same substance?
**A.** 0.2%

**Q.** And the tot. MFI [25]?
**A.** 0.6

**Q.** And the % [26]?
**A.** 0.3%

**Q.** What about the tot. MFI [26] of the same substance?
**A.** 1.1

**Q.** What about the % [27] of the same substance?
**A.** 1.7%

**Q.** And the tot. MFI [27]?
**A.** 1

**Q.** And the % [28]?
**A.** 1.3%

**Q.** What about the tot. MFI [28] of the same substance?
**A.** 1.2

**Q.** What about the % [29] of the same substance?
**A.** 0.1%

**Q.** And the tot. MFI [29]?
**A.** 0.3

**Q.** And the % [30]?
**A.** 0.5%

**Q.** What about the tot. MFI [30] of the same substance?
**A.** 0.2

**Q.** And the % [31]?
**A.** 0.3%

**Q.** And the tot. MFI [31]?
**A.** 0.2

**Q.** And the % NK+ [32]?
**A.** 0.5%

**Q.** And the MFI [32]?
**A.** 0.4

**Q.** And the % NK+ [33]?
**A.** 0.7%

**Q.** And the MFI [33]?
**A.** 0.59

**Q.** And the % NK+ (Mean) [34]?
**A.** 0.3%

**Q.** And the MFI (Mean) [34]?
**A.** 0.6
